The numbers were not newly measured in publication PMC6628902, which cites them from elsewhere.

This series concerns the target CXCL12 (Homo sapiens) (UniProt P48061).

Chain of CXCR4 (P61073 whole entry): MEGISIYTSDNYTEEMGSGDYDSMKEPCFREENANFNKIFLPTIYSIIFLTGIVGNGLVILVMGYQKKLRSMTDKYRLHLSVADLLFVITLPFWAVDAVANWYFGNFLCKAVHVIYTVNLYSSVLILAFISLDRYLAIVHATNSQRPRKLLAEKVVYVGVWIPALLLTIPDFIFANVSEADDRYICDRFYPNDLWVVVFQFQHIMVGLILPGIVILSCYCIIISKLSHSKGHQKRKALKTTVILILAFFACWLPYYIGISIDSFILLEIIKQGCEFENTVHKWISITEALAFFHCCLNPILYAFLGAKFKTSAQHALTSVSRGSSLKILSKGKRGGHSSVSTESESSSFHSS
Chain of CXCL12 (Homo sapiens) (P48061 22-89): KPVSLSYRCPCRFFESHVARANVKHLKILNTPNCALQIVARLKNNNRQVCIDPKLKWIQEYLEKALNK

Regarding CXCR4 (from UniProt P61073), the Kd – broadly, the equilibrium constant for the complex coming apart – is 4.5 nM.
